B1: Azoarcus group I ribozyme (parent)
chain: GUGCCUUGCGCCGGGAAACCACGCAAGGGAUGGUGUCAAAUUCGGCGAAACCUAAGCGCCCGCCCGGGCGUAUGGCAACGCCGAGCCAAGCUUCGGCGCCUGCGCCGAUGAAGGUGUAGAGACUAGACGGCACCCACCUAAGGCAAACGCUAUGGUGAAGGCAUAGUCCAGGGAGUGGCGAAAGUCACACAAACCGG

The variants in this series derive from B1. Description: reverse-splicing fitness (ratio to wild type); higher = more active; in vitro selection; Mg2+ level not given. The procedure, abridged: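 An in vitro group I ribozyme library with randomized positions was T7-transcribed and gel-purified. In triplicate, 10 pmol RNA in EPPS pH 7.5 was reacted with 50 pmoles of a 30-nt RNA substrate for 1 h at 37 °C across several added MgCl2 levels (1–48 mM), then stopped with EDTA. Products were reverse transcribed from a substrate-complementary primer, PCR-amplified and sequenced (HiSeq 4000). Fitness is a variant's read proportion after selection over that before, normalised to wild type.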
Take GUGCCUUGCGCCGGGAAACCACGCAAGGGAUGGUGUCAAAUUCGGCGAAACCUAAGCGCCCGCCCGGGCGUAUGGCAACGCUGAGCCAAGCUUCGGCGCCUGCGCCGAUGGAGGUGUAGCGACUAGACGGCACCCACCUAAGGCGAACGGUAUGGUGAAGGCAUAGUCCAGGGAGAGGCGAAAGUCACACAAACCGG [C82U A111G A120C A145G C150G U176A]: the reverse-splicing fitness was found to be 0.00545. In the case of GUGCCUUGCGCCGGGAAACCACGCAAGGGAUGGUGUCAAAUUCGGCGAAACCUAAGCGCCCGCCCGGGCGUAUGGCAACGCUGAGCCAAGCUUCGGCGCCUGCGCCGAUGGAGGUGUAGCGACUAGACGGCACCCACCUAAGGCGAACGGUAUGGUGAAGGCAUAGUCCAGGGAGCGGCGAAAGUCACACAAACCGG [C82U A111G A120C A145G C150G U176C], the reverse-splicing fitness was 0.00793. Consider GUGCCUUGCGCCGGGAAACCACGCAAGGGAUGGUGUCAAAUUCGGCGAAACCUAAGCGCCCGCCCGGGCGUAUGGCAACGCUGAGCCAAGCUUCGGCGCCUGCGCCGAUGGAGGUGUAGCGACUAGACGGCACCCACCUAAGGCGAACGGUAUGGUGAAGGCAUAGUCCAGGGAGGGGCGAAAGUCACACAAACCGG [C82U A111G A120C A145G C150G U176G], for which the reverse-splicing fitness was 0.0033. Turning to GUGCCUUGCGCCGGGAAACCACGCAAGGGAUGGUGUCAAAUUCGGCGAAACCUAAGCGCCCGCCCGGGCGUAUGGCAACGCUGAGCCAAGCUUCGGCGCCUGCGCCGAUGGAGGUGUAGCGACUAGACGGCACCCACCUAAGGCGAACGCUAUGGUGAAGGCAUAGUCGAGGGAGCGGCGAAAGUCACACAAACCGG [C82U A111G A120C A145G C169G U176C], the reverse-splicing fitness turned out to be 0.0179. As for GUGCCUUGCGCCGGGAAACCACGCAAGGGAUGGUGUCAAAUUCGGCGAAACCUAAGCGCCCGCCCGGGCGUAUGGCAACGCUGAGCCAAGCUUCGGCGCCUGCGCCGAUGGAGGUGUAGCGACUAGACGGCACCCACCUAAGGCGAACGCUAUGGUGAAGGCAUAGUCGAGGGAGGGGCGAAAGUCACACAAACCGG [C82U A111G A120C A145G C169G U176G], the reverse-splicing fitness is 0.00407.

For the variant GUGCCUUGCGCCGGGAAACCACGCAAGGGAUGGUGUCAAAUUCGGCGAAACCUAAGCGCCCGCCCGGGCGUAUGGCAACGCUGAGCCAAGCUUCGGCGCCUGCGCCGAUGGAGGUGUAGCGACUAGACGGCACCCACCUAAGGCGAACGCUAUGGUGAAGGCAUAGUCGAGGGAGAGGCGAAAGUCACACAAACCGG [C82U A111G A120C A145G C169G U176A], the reverse-splicing fitness came to 0.0181. With GUGCCUUGCGCCGGGAAACCACGCAAGGGAUGGUGUCAAAUUCGGCGAAACCUAAGCGCCCGCCCGGGCGUAUGGCAACGCUGAGCCAAGCUUCGGCGCCUGCGCCGAUGGAGGUGUAGCGACUAGACGGCACCCACCUAAGGCGAACGCUAUGGUGAAGGCAUAGUCAAGGGAGCGGCGAAAGUCACACAAACCGG [C82U A111G A120C A145G C169A U176C] the figure was 0.0205. For the variant GUGCCUUGCGCCGGGAAACCACGCAAGGGAUGGUGUCAAAUUCGGCGAAACCUAAGCGCCCGCCCGGGCGUAUGGCAACGCUGAGCCAAGCUUCGGCGCCUGCGCCGAUGGAGGUGUAGCGACUAGACGGCACCCACCUAAGGCGAACGCUAUGGUGAAGGCAUAGUCAAGGGAGAGGCGAAAGUCACACAAACCGG [C82U A111G A120C A145G C169A U176A], the reverse-splicing fitness came out at 0.0153. Take GUGCCUUGCGCCGGGAAACCACGCAAGGGAUGGUGUCAAAUUCGGCGAAACCUAAGCGCCCGCCCGGGCGUAUGGCAACGCUGAGCCAAGCUUCGGCGCCUGCGCCGAUGGAGGUGUAGCGACUAGACGGCACCCACCUAAGGCGAACGCUAUGGUGAAGGCAUAGUCAAGGGAGGGGCGAAAGUCACACAAACCGG [C82U A111G A120C A145G C169A U176G]: the reverse-splicing fitness was found to be 0.00336. For GUGCCUUGCGCCGGGAAACCACGCAAGGGAUGGUGUCAAAUUCGGCGAAACCUAAGCGCCCGCCCGGGCGUAUGGCAACGCUGAGCCAAGCUUCGGCGCCUGCGCCGAUGGAGGUGUAGCGACUAGACGGCACCCACCUAAGGCGAACGUUAUGGUGAAGGCAUAGUCAAGGGAGCGGCGAAAGUCACACAAACCGG [C82U A111G A120C A145G C150U C169A U176C], the reverse-splicing fitness was found to be 0.0152. In the case of GUGCCUUGCGCCGGGAAACCACGCAAGGGAUGGUGUCAAAUUCGGCGAAACCUAAGCGCCCGCCCGGGCGUAUGGCAACGCUGAGCCAAGCUUCGGCGCCUGCGCCGAUGGAGGUGUAGCGACUAGACGGCACCCACCUAAGGCGAACGUUAUGGUGAAGGCAUAGUCAAGGGAGAGGCGAAAGUCACACAAACCGG [C82U A111G A120C A145G C150U C169A U176A], the reverse-splicing fitness was 0.0135. In the case of GUGCCUUGCGCCGGGAAACCACGCAAGGGAUGGUGUCAAAUUCGGCGAAACCUAAGCGCCCGCCCGGGCGUAUGGCAACGCUGAGCCAAGCUUCGGCGCCUGCGCCGAUGGAGGUGUAGCGACUAGACGGCACCCACCUAAGGCGAACGUUAUGGUGAAGGCAUAGUCAAGGGAGGGGCGAAAGUCACACAAACCGG [C82U A111G A120C A145G C150U C169A U176G], the reverse-splicing fitness turned out to be 0.00429. The figure for GUGCCUUGCGCCGGGAAACCACGCAAGGGAUGGUGUCAAAUUCGGCGAAACCUAAGCGCCCGCCCGGGCGUAUGGCAACGCUGAGCCAAGCUUCGGCGCCUGCGCCGAUGGAGGUGUAGCGACUAGACGGCACCCACCUAAGGCGAACGUUAUGGUGAAGGCAUAGUCUAGGGAGAGGCGAAAGUCACACAAACCGG [C82U A111G A120C A145G C150U C169U U176A] is 0.0147. Regarding GUGCCUUGCGCCGGGAAACCACGCAAGGGAUGGUGUCAAAUUCGGCGAAACCUAAGCGCCCGCCCGGGCGUAUGGCAACGCUGAGCCAAGCUUCGGCGCCUGCGCCGAUGGAGGUGUAGCGACUAGACGGCACCCACCUAAGGCGAACGUUAUGGUGAAGGCAUAGUCUAGGGAGGGGCGAAAGUCACACAAACCGG [C82U A111G A120C A145G C150U C169U U176G], the reverse-splicing fitness was found to be 0.00448.

With GUGCCUUGCGCCGGGAAACCACGCAAGGGAUGGUGUCAAAUUCGGCGAAACCUAAGCGCCCGCCCGGGCGUAUGGCAACGCUGAGCCAAGCUUCGGCGCCUGCGCCGAUGGAGGUGUAGCGACUAGACGGCACCCACCUAAGGCGAACGUUAUGGUGAAGGCAUAGUCUAGGGAGCGGCGAAAGUCACACAAACCGG [C82U A111G A120C A145G C150U C169U U176C], the reverse-splicing fitness was found to be 0.0127.

The values are drawn from the RNAGym collection of RNA variant scans (doi:10.1093/molbev/msab373).
